In experiment [1] the test system is SARS-CoV-2 gRNA and sgRNAs. It is filed as binding. Particulars: for target (unweighted spectral count in RNP capture): Probe II capture, LC-MS/MS LFQ; for background (unweighted spectral count in control): no-probe control pull-down, used as background for Probe II.
In a further experiment the test system is gRNA of HCoV-OC43. It is filed as binding. Particulars: for target (spectral count, OC43 Probe I RNP capture) / background (spectral count, no-probe control): type n_48_v: 48 hours post-infection; for target (spectral count, OC43 Probe I RNP capture): infected cells, unweighted spectral count; for background (spectral count, no-probe control): no-probe control on infected cells; for target (spectral count) / background (spectral count): type g_36_m, 36 hpi, Probe I; for target (spectral count): HCoV-OC43-infected HCT-8 cells; for background (spectral count): uninfected-probe control.

In a further experiment the test system is HCoV-OC43 gRNA and sgRNA. In kind it is binding. Particulars: for target (unweighted spectral count, OC43 Probe II capture) / target (spectral count) / background (spectral count): 36 hpi; for target (unweighted spectral count, OC43 Probe II capture): type n_36_v, FDR<10%; for target (unweighted spectral count, OC43 Probe II capture) / target (unweighted spectral count): tested against no-probe control; for target (unweighted spectral count): OC43 Probe II, infected cells; for target (unweighted spectral count, OC43 Probe II) / background (unweighted spectral count, no-probe control): type n_48_v, 48 hpi; for target (unweighted spectral count, OC43 Probe II): OC43 Probe II capture on infected cells; for background (unweighted spectral count, no-probe control): no-probe control on infected cells; for target (spectral count) / background (spectral count): type s_36_m, Probe II; for target (spectral count): HCoV-OC43-infected HCT-8 cells; for background (spectral count): uninfected-probe control.

A further experiment has as its system SARS-CoV-2. In kind it is cell-based. The conditions noted are these: for change in viral RNA levels (gRNA, N sgRNA) after siRNA depletion: Calu-3 cells, 50 nM siRNA, RT-qPCR, relative to siNC. Background: In qPCR the cycle at which signal appears reflects the starting amount.
In another experiment the test system is SARS-CoV-2 gRNA. In kind it is binding. Particulars: for target (unweighted spectral count of the protein in the RNP capture): LC-MS/MS, Probe I sample (first 199 lines of Table 2).

“Also recorded” adds a separate entry of the source. Like-named read-outs stand apart in the source and are kept apart here.

B1: ZC3HAV1: host protein, UniProt Q7Z2W4 (protein, UniProt Q7Z2W4 2-902, looked up)
Zinc finger CCCH-type …: ADPEVCCFITKILCAHGGRMALDALLQEIALSEPQLCEVLQVAGPDRFVVLETGGEAGITRSVVATTRARVCRRKYCQRPCDNLHLCKLNLLGRCNYSQSERNLCKYSHEVLSEENFKVLKNHELSGLNKEELAVLLLQSDPFFMPEICKSYKGEGRQQICNQQPPCSRLHICDHFTRGNCRFPNCLRSHNLMDRKVLAIMREHGLNPDVVQNIQDICNSKHMQKNPPGPRAPSSHRRNMAYRARSKSRDRFFQGSQEFLASASASAERSCTPSPDQISHRASLEDAPVDDLTRKFTYLGSQDRARPPSGSSKATDLGGTSQAGTSQRFLENGSQEDLLHGNPGSTYLASNSTSAPNWKSLTSWTNDQGARRKTVFSPTLPAARSSLGSLQTPEAVTTRKGTGLLSSDYRIINGKSGTQDIQPGPLFNNNADGVATDITSTRSLNYKSTSSGHREISSPRIQDAGPASRDVQATGRIADDADPRVALVNDSLSDVTSTTSSRVDDHDSEEICLDHLCKGCPLNGSCSKVHFHLPYRWQMLIGKTWTDFEHMETIEKGYCNPGIHLCSVGSYTINFRVMSCDSFPIRRLSTPSSVTKPANSVFTTKWIWYWKNESGTWIQYGEEKDKRKNSNVDSSYLESLYQSCPRGVVPFQAGSRNYELSFQGMIQTNIASKTQKDVIRRPTFVPQWYVQQMKRGPDHQPAKTSSVSLTATFRPQEDFCFLSSKKYKLSEIHHLHPEYVRVSEHFKASMKNFKIEKIKKIENSELLDKFTWKKSQMKEEGKLLFYATSRAYVESICSNNFDSFLHETHENKYGKGIYFAKDAIYSHKNCPYDAKNVVMFVAQVLVGKFTEGNITYTSPPPQFDSCVDTRSNPSVFVIFQKDQVYPQYVIEYTEDKACVIS
Take B1: in experiment [1], the “enrichment in SARS-CoV-2 Probe II RNP capture” value is given as “enriched; also recorded: found in the SARS-CoV-2 experiments”, the “target (unweighted spectral count in RNP capture)” value is 48 and the “background (unweighted spectral count in control)” value is 1. In the experiment on gRNA of HCoV-OC43, the “target (spectral count, OC43 Probe I RNP capture)” value was determined as 17 and the “background (spectral count, no-probe control)” value is reported as 1. In the experiment with HCoV-OC43 gRNA and sgRNA, the “target (unweighted spectral count, OC43 Probe II capture)” value is 18; the “target (unweighted spectral count, OC43 Probe II)” value turned out to be 22; the “background (unweighted spectral count, no-probe control)” value stood at 1; the “target (spectral count)” value was found to be 18. The “background (spectral count)” value with HCoV-OC43 gRNA and sgRNA came out at 1. The “target (unweighted spectral count)” value in the experiment on HCoV-OC43 gRNA and sgRNA (12 hpi (type n_12_v)) stood at 8. Further, the “target (unweighted spectral count)” value with HCoV-OC43 gRNA and sgRNA (24 hpi (type n_24_v)) turned out to be 13. Also, in the experiment with SARS-CoV-2, the “antiviral or proviral role of the host protein indicated by knockdown” value is “may act as antiviral factors” and the “change in viral RNA levels (gRNA, N sgRNA) after siRNA depletion” value (from here on “change in viral RNA levels”) is listed as “increased viral RNAs”. In addition, in the experiment on SARS-CoV-2 gRNA, the “enrichment in SARS-CoV-2 Probe I RNP capture” value is recorded as “enriched; also recorded: found in the SARS-CoV-2 experiments” and the “target (unweighted spectral count of the protein in the RNP capture)” value turned out to be 31.

B2: CELF1: host protein, UniProt Q92879 (protein, UniProt Q92879 1-486, looked up)
CUGBP Elav-like family member …: MNGTLDHPDQPDLDAIKMFVGQVPRTWSEKDLRELFEQYGAVYEINVLRDRSQNPPQSKGCCFVTFYTRKAALEAQNALHNMKVLPGMHHPIQMKPADSEKNNAVEDRKLFIGMISKKCTENDIRVMFSSFGQIEECRILRGPDGLSRGCAFVTFTTRAMAQTAIKAMHQAQTMEGCSSPMVVKFADTQKDKEQKRMAQQLQQQMQQISAASVWGNLAGLNTLGPQYLALYLQLLQQTASSGNLNTLSSLHPMGGLNAMQLQNLAALAAAASAAQNTPSGTNALTTSSSPLSVLTSSGSSPSSSSSNSVNPIASLGALQTLAGATAGLNVGSLAGMAALNGGLGSSGLSNGTGSTMEALTQAYSGIQQYAAAALPTLYNQNLLTQQSIGAAGSQKEGPEGANLFIYHLPQEFGDQDLLQMFMPFGNVVSAKVFIDKQTNLSKCFGFVSYDNPVSAQAAIQSMNGFQIGMKRLKVQLKRSKNDSKPY
As for B2, in experiment [1], the “enrichment in SARS-CoV-2 Probe II RNP capture” value was “found in the SARS-CoV-2 experiments”, the “target (unweighted spectral count in RNP capture)” value turned out to be 25 and the “background (unweighted spectral count in control)” value came to 1. For the same molecule, in the experiment on gRNA of HCoV-OC43, the “target (spectral count)” value stood at 15; the “background (spectral count)” value was 1; the “target (spectral count, OC43 Probe I RNP capture)” value came out at 16; the “background (spectral count, no-probe control)” value was 1. Further, in the experiment with HCoV-OC43 gRNA and sgRNA, the “target (unweighted spectral count, OC43 Probe II capture)” value is reported as 14; the “target (unweighted spectral count, OC43 Probe II)” value is on record as 14; the “background (unweighted spectral count, no-probe control)” value came out at 1; the “target (spectral count)” value was found to be 14. Also, in the experiment with HCoV-OC43 gRNA and sgRNA, the “background (spectral count)” value amounted to 1. Besides, in the experiment on HCoV-OC43 gRNA and sgRNA (24 hpi (type n_24_v)), the “target (unweighted spectral count)” value came out at 6. For the same molecule, the “change in viral RNA levels” value with SARS-CoV-2 was “increased viral RNAs; also recorded: only modest”. Besides, the “enrichment in SARS-CoV-2 Probe I RNP capture” value in the experiment with SARS-CoV-2 gRNA is listed as “found in the SARS-CoV-2 experiments”.

B3: FUBP3: host protein, UniProt Q96I24 (protein, UniProt Q96I24 2-572, looked up)
Far upstream element-binding …: AELVQGQSAPVGMKAEGFVDALHRVRQIAAKIDSIPHLNNSTPLVDPSVYGYGVQKRPLDDGVGNQLGALVHQRTVITEEFKVPDKMVGFIIGRGGEQISRIQAESGCKIQIASESSGIPERPCVLTGTPESIEQAKRLLGQIVDRCRNGPGFHNDIDSNSTIQEILIPASKVGLVIGRGGETIKQLQERTGVKMVMIQDGPLPTGADKPLRITGDAFKVQQAREMVLEIIREKDQADFRGVRGDFNSRMGGGSIEVSVPRFAVGIVIGRNGEMIKKIQNDAGVRIQFKPDDGISPERAAQVMGPPDRCQHAAHIISELILTAQERDGFGGLAAARGRGRGRGDWSVGAPGGVQEITYTVPADKCGLVIGKGGENIKSINQQSGAHVELQRNPPPNSDPNLRRFTIRGVPQQIEVARQLIDEKVGGTNLGAPGAFGQSPFSQPPAPPHQNTFPPRSSGCFPNMAAKVNGNPHSTPVSGPPAFLTQGWGSTYQAWQQPTQQVPSQQSQPQSSQPNYSKAWEDYYKKQSHAASAAPQASSPPDYTMAWAEYYRQQVAFYGQTLGQAQAHSQEQ
For the molecule B3, in experiment [1], the “enrichment in SARS-CoV-2 Probe II RNP capture” value is reported as “enriched; also recorded: found in the SARS-CoV-2 experiments”, the “target (unweighted spectral count in RNP capture)” value is on record as 173 and the “background (unweighted spectral count in control)” value is 1. Further, the “enrichment / detection in HCoV-OC43 Probe I RNP capture” value in the experiment with gRNA of HCoV-OC43 (infected HCT-8 cells) was “enriched”. In addition, in the experiment with gRNA of HCoV-OC43, the “target (spectral count)” value was found to be 49; the “background (spectral count)” value was found to be 9; the “target (spectral count, OC43 Probe I RNP capture)” value is 47; the “background (spectral count, no-probe control)” value is on record as 3. In addition, in the experiment with HCoV-OC43 gRNA and sgRNA, the “target (unweighted spectral count, OC43 Probe II capture)” value was found to be 42; the “target (unweighted spectral count, OC43 Probe II)” value was 71; the “background (unweighted spectral count, no-probe control)” value is given as 3; the “target (spectral count)” value was 42. Also, the “background (spectral count)” value in the experiment on HCoV-OC43 gRNA and sgRNA is 6. Further, in the experiment with HCoV-OC43 gRNA and sgRNA (12 hpi (type n_12_v)), the “target (unweighted spectral count)” value is on record as 11. For the same molecule, the “target (unweighted spectral count)” value in the experiment with HCoV-OC43 gRNA and sgRNA (24 hpi (type n_24_v)) is 27. In addition, the “enrichment / detection in HCoV-OC43 Probe II RNP capture” value with HCoV-OC43 gRNA and sgRNA (infected HCT-8 cells) was “enriched”. Further, the “change in viral RNA levels” value in the experiment on SARS-CoV-2 is on record as “increased the viral RNA levels”. Besides, in the experiment with SARS-CoV-2 gRNA, the “enrichment in SARS-CoV-2 Probe I RNP capture” value is reported as “enriched; also recorded: found in the SARS-CoV-2 experiments” and the “target (unweighted spectral count of the protein in the RNP capture)” value turned out to be 94.
